Columns and labels:
clinical [1] = details: for tissue uptake at 1 h / tissue uptake at 2 h / tissue uptake at 4 h / tissue uptake at 0.25 h: human, Relative radiotracer uptake
Source text: The primary objective was to characterize preliminary targeting properties of [68Ga] NeoB in patients with malignancies known to overexpress GRPR. The primary efficacy endpoints were: • Number and location of tumor lesions detected by [68Ga]-NeoBOMB1 overall and for each tumor type • Calculation of the ratio tumor/background standard uptake value (SUV) and %injected dose per gram of tissue (ID/g) and calculation of absorbed dose (mGy/MBq) in tumor overall and for each tumor type.
Accordingly, highest relative tracer uptake following administration of a bombesin antagonist is expected in pancreas, kidney, and liver (Roivainen et al, 2013).

clinical [2] = details: human
Source text: To obtain SUVmean aorta, a spherical volume with a diameter of two (2) cm should be measured within the aortic arch. All SUVr values above one (1) are considered as positive GRPR overexpression.
SUVr is the ratio between SUV mean of each lesion detected by [^68Ga]-NeoBOMB1 and the SUVmean of the region of reference.

[3] = maximum injected activity of 250 MBq
GRPR = GRPR (Homo sapiens, UniProt P30550); details: GRPR expressed in breast, prostate and GIST; non-clinical models; cited from earlier work
[4] = 6 patients with GIST; cited from earlier work

Chain of GRPR (P30550 whole entry, species assumed): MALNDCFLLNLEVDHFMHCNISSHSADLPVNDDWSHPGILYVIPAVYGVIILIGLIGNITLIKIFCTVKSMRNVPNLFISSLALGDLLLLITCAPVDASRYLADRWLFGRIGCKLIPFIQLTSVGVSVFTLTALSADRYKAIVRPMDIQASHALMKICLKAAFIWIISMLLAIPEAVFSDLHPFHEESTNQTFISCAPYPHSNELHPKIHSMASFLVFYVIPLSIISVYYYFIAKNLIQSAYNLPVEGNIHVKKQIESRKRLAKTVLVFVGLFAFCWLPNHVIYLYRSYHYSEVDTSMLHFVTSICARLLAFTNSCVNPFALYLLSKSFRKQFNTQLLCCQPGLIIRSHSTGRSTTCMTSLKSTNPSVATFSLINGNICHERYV

CC(C)CC(CC(C)C)NC(=O)[C@H](Cc1cnc[nH]1)NC(=O)CNC(=O)[C@@H](NC(=O)[C@H](C)NC(=O)[C@H](Cc1c[nH]c2ccccc12)NC(=O)[C@H](CCC(N)=O)NC(=O)[C@@H](Cc1ccccc1)NC(=O)COCC(=O)Nc1ccc(CNC(=O)CN2CCN(CC(=O)O)CCN(CC(=O)O)CCN(CC(=O)O)CC2)cc1)C(C)C [[68Ga]-NeoB, metal not drawn]
tissue uptake at 1 h (clinical [1]; tumor lesion T4-liverR1, total radioactivity, patient FR01-009, tumor lesion T4-liverR1, 60 min/60.7 min actual): 0.014 %ID/g | tissue uptake at 2 h (clinical [1]; tumor lesion T4-liverR1, total radioactivity, patient FR01-009, tumor lesion T4-liverR1, 120 min/123.9 min actual): 0.0153 %ID/g | tissue uptake at 4 h (clinical [1]; tumor lesion T4-liverR1, total radioactivity, patient FR01-009, tumor lesion T4-liverR1, 240 min/207.9 min actual): 0.0116 %ID/g | tissue uptake at 0.25 h (clinical [1]; tumor lesion T5-liverR2, total radioactivity, patient FR01-009, tumor lesion T5-liverR2, 15 min/17.8 min actual): 0.015 %ID/g | tissue uptake at 1 h (clinical [1]; tumor lesion T5-liverR2, total radioactivity, patient FR01-009, tumor lesion T5-liverR2, 60 min/60.7 min actual): 0.0193 %ID/g | tissue uptake at 2 h (clinical [1]; tumor lesion T5-liverR2, total radioactivity, patient FR01-009, tumor lesion T5-liverR2, 120 min/123.9 min actual): 0.022 %ID/g | tissue uptake at 4 h (clinical [1]; tumor lesion T5-liverR2, total radioactivity, patient FR01-009, tumor lesion T5-liverR2, 240 min/207.9 min actual): 0.0212 %ID/g | tissue uptake at 0.25 h (clinical [1]; tumor lesion T6-sacrumL, total radioactivity, patient FR01-009, 15 min/17.8 min actual): 0.00315 %ID/g | tissue uptake at 1 h (clinical [1]; tumor lesion T6-sacrumL, total radioactivity, patient FR01-009, 60 min/60.7 min actual): 0.00289 %ID/g | tissue uptake at 2 h (clinical [1]; tumor lesion T6-sacrumL, total radioactivity, patient FR01-009, 120 min/123.9 min actual): 0.00254 %ID/g | tissue uptake at 4 h (clinical [1]; tumor lesion T6-sacrumL, total radioactivity, patient FR01-009, 240 min/207.9 min actual): 0.00188 %ID/g | tissue uptake at 0.25 h (clinical [1]; tumor lesion T7-liverP, total radioactivity, patient FR01-009, 15 min/17.8 min actual): 0.0122 %ID/g | tissue uptake at 1 h (clinical [1]; tumor lesion T7-liverP, total radioactivity, patient FR01-009, 60 min/60.7 min actual): 0.0118 %ID/g | tissue uptake at 2 h (clinical [1]; tumor lesion T7-liverP, total radioactivity, patient FR01-009, 120 min/123.9 min actual): 0.0124 %ID/g | tissue uptake at 4 h (clinical [1]; tumor lesion T7-liverP, total radioactivity, patient FR01-009, 240 min/207.9 min actual): 0.0108 %ID/g | tissue uptake at 0.25 h (clinical [1]; tumor lesion T8-liverR, total radioactivity, patient FR01-009, 15 min/17.8 min actual): 0.0108 %ID/g | tissue uptake at 1 h (clinical [1]; tumor lesion T8-liverR, total radioactivity, patient FR01-009, 60 min/60.7 min actual): 0.00961 %ID/g | tissue uptake at 2 h (clinical [1]; tumor lesion T8-liverR, total radioactivity, patient FR01-009, 120 min/123.9 min actual): 0.0109 %ID/g | tissue uptake at 0.25 h (clinical [1]; urinary bladder wall, total radioactivity, patient FR01-008, 15 min/38.6 min actual): 0.0313 %ID/g | tissue uptake at 1 h (clinical [1]; urinary bladder wall, total radioactivity, patient FR01-008, 60 min/62.6 min actual): 0.0426 %ID/g | tissue uptake at 2 h (clinical [1]; urinary bladder wall, total radioactivity, patient FR01-008, 120 min/123.2 min actual): 0.0214 %ID/g | tissue uptake at 4 h (clinical [1]; urinary bladder wall, total radioactivity, patient FR01-008, 240 min/221.1 min actual): 0.0179 %ID/g | tissue uptake at 0.25 h (clinical [1]; urinary bladder wall, total radioactivity, patient FR01-009, 15 min/17.8 min actual): 0.0268 %ID/g | tissue uptake at 1 h (clinical [1]; urinary bladder wall, total radioactivity, patient FR01-009, 60 min/60.7 min actual): 0.0648 %ID/g | tissue uptake at 2 h (clinical [1]; urinary bladder wall, total radioactivity, patient FR01-009, 120 min/123.9 min actual): 0.0405 %ID/g | tissue uptake at 4 h (clinical [1]; urinary bladder wall, total radioactivity, patient FR01-009, 240 min/207.9 min actual): 0.11 %ID/g | Relative radiotracer uptake (clinical [1]; patient FR01-008, Alveolar-interstitial (Lungs), 15 min/38.6 min actual): 2.1842E-03 %ID/g | Relative radiotracer uptake (clinical [1]; patient FR01-008, Alveolar-interstitial (Lungs), 60 min/62.6 min actual): 9.4759E-04 %ID/g | Relative radiotracer uptake (clinical [1]; patient FR01-008, Alveolar-interstitial (Lungs), 120 min/123.2 min actual): 6.7856E-04 %ID/g | Relative radiotracer uptake (clinical [1]; patient FR01-008, Alveolar-interstitial (Lungs), 240 min/221.1 min actual): 6.2082E-04 %ID/g | Relative radiotracer uptake (clinical [1]; patient FR01-008, Heart wall, 15 min/38.6 min actual): 6.0002E-03 %ID/g | Relative radiotracer uptake (clinical [1]; patient FR01-008, Heart wall, 60 min/62.6 min actual): 2.4054E-03 %ID/g | Relative radiotracer uptake (clinical [1]; patient FR01-008, Heart wall, 120 min/123.2 min actual): 1.6323E-03 %ID/g | Relative radiotracer uptake (clinical [1]; patient FR01-008, Heart wall, 240 min/221.1 min actual): 1.3018E-03 %ID/g | Relative radiotracer uptake (clinical [1]; patient FR01-008, Kidneys, 15 min/38.6 min actual): 6.8821E-03 %ID/g | Relative radiotracer uptake (clinical [1]; patient FR01-008, Kidneys, 60 min/62.6 min actual): 5.7654E-03 %ID/g | Relative radiotracer uptake (clinical [1]; patient FR01-008, Kidneys, 120 min/123.2 min actual): 2.3856E-03 %ID/g | Relative radiotracer uptake (clinical [1]; patient FR01-008, Kidneys, 240 min/221.1 min actual): 1.4872E-03 %ID/g | Relative radiotracer uptake (clinical [1]; patient FR01-008, Spleen, 240 min/221.1 min actual): 1.2014E-03 %ID/g | Relative radiotracer uptake (clinical [1]; patient FR01-008, tumor lesion T1-Chest, 15 min/38.6 min actual): 3.4664E-03 %ID/g | Relative radiotracer uptake (clinical [1]; patient FR01-008, tumor lesion T1-Chest, 60 min/62.6 min actual): 2.1832E-03 %ID/g | Relative radiotracer uptake (clinical [1]; patient FR01-008, tumor lesion T1-Chest, 120 min/123.2 min actual): 1.4935E-03 %ID/g | Relative radiotracer uptake (clinical [1]; patient FR01-008, tumor lesion T1-Chest, 240 min/221.1 min actual): 1.2884E-03 %ID/g | Relative radiotracer uptake (clinical [1]; patient FR01-008, tumor lesion T2-Left rib, 15 min/38.6 min actual): 3.8441E-03 %ID/g | Relative radiotracer uptake (clinical [1]; patient FR01-008, tumor lesion T2-Left rib, 60 min/62.6 min actual): 2.5064E-03 %ID/g | Relative radiotracer uptake (clinical [1]; patient FR01-008, tumor lesion T2-Left rib, 120 min/123.2 min actual): 1.7251E-03 %ID/g | Relative radiotracer uptake (clinical [1]; patient FR01-008, tumor lesion T2-Left rib, 240 min/221.1 min actual): 1.6681E-03 %ID/g | Relative radiotracer uptake (clinical [1]; patient FR01-008, tumor lesion T3-Spine, 15 min/38.6 min actual): 4.6895E-03 %ID/g | Relative radiotracer uptake (clinical [1]; patient FR01-008, tumor lesion T3-Spine, 60 min/62.6 min actual): 2.2489E-03 %ID/g | Relative radiotracer uptake (clinical [1]; patient FR01-008, tumor lesion T3-Spine, 120 min/123.2 min actual): 1.8497E-03 %ID/g | Relative radiotracer uptake (clinical [1]; patient FR01-008, tumor lesion T3-Spine, 240 min/221.1 min actual): 1.9539E-03 %ID/g | SUV (clinical [2]; lesion / region of reference): ~1 SUV | SUV (clinical [2]; lesion / spleen or MBP (aorta or heart)): > 1 SUV | estimated effective dose per exam [3]: 7.25 mSv | affinity to the GRPR (GRPR): high affinity | effective dose, mean [4]: 0.029 ± 0.06 mSv/MBq
